From publication PMC9536601 come the findings set out here.

Test [1] has as its target chimeric hexon of the Ad5 vector Ad5:H6.3 (Ad6 hexon section with HVR7 mutations, on virions) (human adenovirus 5 | human adenovirus 6) (UniProt P04133). Description: SPR; Biacore T200; about 300 to 5,000 RU of Ad virions immobilised on a CM5 chip, coagulation factors flowed over at four concentrations, 50 uL/min; running buffer 10 mM HEPES, 150 mM NaCl, 1 mM CaCl2, 0.5 mM MgCl2, 0.1% BSA, 0.05% polysorbate 20, pH 7.4; regeneration with 3 mM EDTA; global fit to a 1:1 kinetic interaction model, double referencing. A general note: In SPR one partner is held on a chip, and binding of the other changes the refractive index at the surface.

The target in test [2] is chimeric hexon of the Ad5 vector Ad5:H1.1 (Ad5 hexon with residues 112-593 from Ad1 hexon, on virions) (human adenovirus 5 | human adenovirus 1) (UniProt P04133). Described as above.
The target in test [3] is chimeric hexon of the Ad5 vector Ad5:H6.2 (Ad6 hexon section with HVR7 mutations, on virions) (human adenovirus 5 | human adenovirus 6) (UniProt P04133). Described as above.
The target of test [4] is chimeric hexon of the Ad5 vector Ad5:H6.1 (Ad5 hexon with residues 112-593 from Ad6 hexon, on virions) (human adenovirus 5 | human adenovirus 6) (UniProt P04133). Described as above.
The target of test [5] is hexon of wild-type human adenovirus type 1 (on virions) (human adenovirus 1). The test is described as above.
Test [6] addresses chimeric hexon of the Ad5 vector Ad5:H57.1 (Ad5 hexon with residues 112-593 from Ad57 hexon, on virions) (human adenovirus 5 | human adenovirus 57) (UniProt P04133). Described as above.
Test [7] has as its target chimeric hexon of Ad5:H6.2 (Ad5 vector, hexon residues 112-593 from Ad6 hexon, HVR7 IGNTDTF), on the virion (human adenovirus type 5 | human adenovirus type 6) (UniProt P04133). Description: SPR; Biacore T200; about 300 to 5,000 RU of Ad virions immobilised on a CM5 chip, coagulation factors flowed over at four concentrations, 50 uL/min; 10 mM HEPES, 150 mM NaCl, 1 mM CaCl2, 0.5 mM MgCl2, 0.1% BSA, 0.05% polysorbate 20, pH 7.4; global fit to a 1:1 kinetic interaction model, double referencing.

Test [8] has as its target chimeric hexon of Ad5:H6.1 (Ad5 vector, hexon residues 112-593 from Ad6 hexon), on the virion (human adenovirus type 5 | human adenovirus type 6) (UniProt P04133). The test is described as above.
Test [9] addresses chimeric hexon of Ad5:H57.1 (Ad5 vector, hexon residues 112-593 from Ad57 hexon), on the virion (human adenovirus type 5 | human adenovirus type 57) (UniProt P04133). The test is described as above.
The target in test [10] is chimeric hexon of Ad5:H6.3 (Ad5 vector, hexon residues 112-593 from Ad6 hexon, HVR7 IGNTETF), on the virion (human adenovirus type 5 | human adenovirus type 6) (UniProt P04133). Described as above.
The target of test [11] is chimeric hexon of Ad5:H1.1 (Ad5 vector, hexon residues 112-593 from Ad1 hexon), on the virion (human adenovirus type 5 | human adenovirus type 1) (UniProt P04133). The description is as above.

The term pKd denotes −log10 of the Kd, conventionally taken in molar units. A lower pKd goes with a high Kd. By koff is commonly meant a measure of how fast the partners let go of each other. Low values mean slow dissociation, high ones fast dissociation. For orientation: kon means the second-order rate constant of association.

pKd: −log10 of the molar value.

Turning to “bovine prothrombin (coagulation factor II) (from UniProt P00735 44-625) (natural protein)”, the pKd in test [1] is 5.60; in test [2] it was 7.47; in test [3], 6.02; in [4], 7.17; in test [5] it was 7.43; in test [6] it was 7.57. Also, the pKd in [7] is 6.02; in [8] it was 7.17; in [9] it was 7.57; in test [10] it was 5.60; in test [11], 7.47. For the same substance, the koff turned out to be 0.0729 s⁻¹ in [1]; 0.00224 s⁻¹ in test [2]; 0.0291 s⁻¹ in [3]; 0.0039 s⁻¹ in test [4]; 0.00193 s⁻¹ in [5]; 0.000993 s⁻¹ in [6]. Besides, the on-rate constant (kon) in test [1] is 29200 M⁻¹ s⁻¹; in test [2] it was 65800 M⁻¹ s⁻¹; in test [3] it was 30500 M⁻¹ s⁻¹; in test [4], 58200 M⁻¹ s⁻¹; in test [5], 52800 M⁻¹ s⁻¹; in test [6], 37400 M⁻¹ s⁻¹.
